Reference: patent US20230203162A1 (NUMAB THERAPEUTICS, published 2023)
Changes are numbered by the printed parent chain. Numbers in names are those of the source. Values belong to the binder of their own block, whether it stands above or below them.

Tests used:
[1] = molecular target: T1, plasma-membranous human MSLN on cell lines (H226, HPAC, H292, OVCAR-3, MeT-5A) (human, UniProt Q13421 296-598); assay: cell-based or functional assay
[2] = molecular target: soluble mesothelin (sMSLN); assay: cell-based or functional assay
[3] = molecular target: T1, plasma-membranous human MSLN on cell …; assay: cell-based or functional assay; remark: listed apart in the source
[4] = molecular target: T1, plasma-membranous human MSLN on cell …; assay: cell-based or functional assay; remark: listed apart in the source
[5] = molecular target: T1, plasma-membranous human MSLN on cell …; assay: cell-based or functional assay; remark: listed apart in the source
[6] = molecular target: T1, plasma-membranous human MSLN on cell …; assay: cell-based or functional assay; remark: listed apart in the source
[7] = molecular target: T1, plasma-membranous human MSLN on cell …; assay: cell-based or functional assay; remark: listed apart in the source
[8] = molecular target: T1, plasma-membranous human MSLN on cell …; assay: flow cytometry on H226 cells
[9] = molecular target: T1, plasma-membranous human MSLN on cell …; assay: flow cytometry on H292 cells
[10] = molecular target: T1, plasma-membranous human MSLN on cell …; assay: flow cytometry on HPAC cells
[11] = molecular target: T2, human recombinant CD3ε protein (Sino Biological) (human, UniProt P07766 23-126); assay: SPR, CD3ε amine-coupled to CM5, antibody injected
T2 construct: Bought protein; also called recombinant human CD3ε; human CD3ε

[12] = molecular target: T1, plasma-membranous human MSLN on cell …; assay: flow cytometry on H226 cells, protein L-PE, 4PL fit
[13] = molecular target: T1, plasma-membranous human MSLN on cell …; assay: flow cytometry on H292 cells, protein L-PE, 4PL fit
[14] = molecular target: T1, plasma-membranous human MSLN on cell …; assay: flow cytometry on HPAC cells, protein L-PE, 4PL fit
[15] = molecular target: T1, plasma-membranous human MSLN on cell …; assay: flow cytometry on Met-5A cells, protein L-PE, 4PL fit
[16] = molecular target: T2, human recombinant CD3ε protein (Sino …); assay: SPR, CD3ε amine-coupled to CM5, antibody injected; footnote: ka1 of a two-state fitting model
[17] = molecular target: T2, human recombinant CD3ε protein (Sino …); assay: SPR, CD3ε amine-coupled to CM5, antibody injected; footnote: kd1 of a two-state fitting model
[18] = molecular target: T3, recombinant human MSLN (purchased from Peprotech) (human, UniProt Q13421 296-598, limits assumed); assay: SPR (Biacore T200), human MSLN; which of the two formats (MSLN immobilized / antibody captured) not given
T3 construct: Bought protein; also called recombinant human mesothelin

[19] = molecular target: T1, plasma-membranous human MSLN on cell …; assay: cell-based or functional assay; remark: listed apart in the source
[20] = molecular target: soluble mesothelin (sMSLN); assay: cell-based or functional assay; remark: listed apart in the source
[21] = molecular target: human serum albumin (hSA, Sigma-Aldrich A3782) (human, UniProt P02768 25-609); assay: SPR, hSA amine-coupled to CM5, antibody injected, pH 5.5, 1:1 Langmuir

fold CD8+ T cell activation potency against PRO1872, HPAC cells [1]: 4 fold
EC50 CD8+ T cell activation, Met-5A cells [3]: 544 pM
EC50 CD8+ T cell activation, H292 cells [4]: 114 pM
EC50 CD8+ T cell activation, HPAC cells [4]: 12.2 pM
EC50 CD8+ T cell activation with H226 cells, 50 ng/ml MSLN [6]: 7.85 pM
EC50 CD8+ T cell activation with H226 cells, 500 ng/ml MSLN [6]: 42.4 pM
EC50 CD8+ T cell activation with H226 cells, no MSLN [6]: 1.99 pM
fold binding against PRO1872 [8]: 3 fold
fold lower binding against PRO1872 [9]: 2 fold
fold binding against PRO1872 [10]: 1.5 to 2 fold
Kd [11]: 20000 pM
EC50 [12]: 659 pM
max. binding (MFI) [12]: 362000 MFI
EC50 [13]: 1030 pM
max. binding (MFI) [13]: 6960 MFI
EC50 [14]: 1480 pM
max. binding (MFI) [14]: 17500 MFI
EC50 [15]: 128 pM
max. binding (MFI) [15]: 7950 MFI
kon [16]: 117000 M⁻¹ s⁻¹
koff [17]: 0.00391 s⁻¹
Kd [18]: 1060 pM
koff [18]: 0.000421 s⁻¹
kon [18]: 398000 M⁻¹ s⁻¹
B1: PRO2000 (MATCH4, biMSLNhigh KD×CD3×hSA) (other)
chain 1: DIQMTQSPSSLSASVGDRVTITCQASQNIYSNLAWYQQKPGKAPKLLIYDASDLASGVPSRFSGSGSGTDFTLTISSLQPEDFATYYCQQVRSSSDIDNPFGTGTKVTVLGGGGGSGGGGSGGGGSGGGGSQVQLVESGGGLVQPGGSLRLSCAASGFSLSSYAMGWVRQAPGKGLEWIGYISTINNTYYASWAKGRFTISRDNSKNTVYLQMNSLRAEDTAVYYCAREIRSGWVDYGFSIWGQGTLVTVSSGGGGSGGGGSEVQLVESGGGLVQPGGSLRLSCAASGFSLSSYDMSWVRQAPGKGLAWIGASYASGPTYYASWAKGRFTISRDNSKNTVYLQMNSLRAEDTATYFCARGGWTGTSHSNIWGQGTLVTVSSGGGSGGGSEVQLVESGGGLVQPGGSLRLSCAASGFSFSSSYWICWVRQAPGKCLEWVGCVFTGDGTTYYASWAKGRFTISRDNSKNTVYLQMNSLRAEDTATYFCARPVSVYYYGMDLWGQGTLVTVSS
chain 2: DIQMTQSPSSLSASVGDRVTITCQASQNIYSNLAWYQQKPGKAPKLLIYDASDLASGVPSRFSGSGSGTDFTLTISSLQPEDFATYYCQQVRSSSDIDNPFGTGTKVTVLGGGGGSGGGGSGGGGSGGGGSQVQLVESGGGLVQPGGSLRLSCAASGFSLSSYAMGWVRQAPGKGLEWIGYISTINNTYYASWAKGRFTISRDNSKNTVYLQMNSLRAEDTAVYYCAREIRSGWVDYGFSIWGQGTLVTVSSGGGGSGGGGSDVVMTQSPSSLSASVGDRVTITCQASQIISSRSAWYQQKPGQPPKLLIYQASKLASGVPSRFSGSGSGTDFTLTISSLQPEDFATYYCQCTYIDSNFGAFGCGTKLTVLGGGSGGSDIQMTQSPSSLSASVGDRVTITCQSSQSVFSNNYLAWFQQKPGQSPKRLIYSASTLASGVPSRFSGSGSGTDFTLTISSLQPEDFATYYCLGSYACSSADCYVFGTGTKVTVLG
notes: Heterodimer; also called biMSLN.CD3
fold killing potency against PRO1872, H226 cells [1]: 75 fold
fold reduction of H226 killing potency with 500 ng/ml sMSLN [2]: 17 fold
shift of H226 killing potency with 100 ng/ml sMSLN [2]: 5 fold
EC50 target cell killing, H226 cells (flow cytometry cytotoxicity assay with PBMCs) [3]: 0.07 pM
EC50 target cell killing, Met-5A cells [3]: 145 pM
EC50 target cell killing, H292 cells [4]: 652 pM
EC50 target cell killing, HPAC cells [4]: 40.8 pM
EC50 H226 target cell killing, 50 ng/ml soluble mesothelin [5]: 31.2 pM
EC50 H226 target cell killing, 500 ng/ml soluble mesothelin [5]: 165 pM
EC50 H226 target cell killing, no mesothelin [5]: 9.73 pM
EC50 target cell killing, H226 cells, 100 ng/ml sMSLN [7]: 3.45 pM
EC50 target cell killing, H226 cells, no sMSLN [7]: 0.7 pM
max. killing, H226 cells, 100 ng/ml sMSLN [7]: 58.5%
max. killing, H226 cells, no sMSLN [7]: 49.4%

fold binding against PRO1872 [8]: 3 fold
fold lower binding against PRO1872 [9]: 2 fold
fold binding against PRO1872 [10]: 1.5 to 2 fold
EC50 [12]: 524 pM
max. binding (MFI) [12]: 363000 MFI
EC50 [13]: 1300 pM
max. binding (MFI) [13]: 6250 MFI
EC50 [14]: 1010 pM
max. binding (MFI) [14]: 18000 MFI
EC50 [15]: 62.8 pM
max. binding (MFI) [15]: 7480 MFI
B2: PRO2100 (MATCH4) (other)
chain 1: B1 chain 1 with N186A
chain 2: B1 chain 2 with N186A
notes: Variant of PRO2000 with anti-MSLN 54-01-G02-sc01 N66A (potential glycosylation site mutated)
shift of H226 killing potency with 100 ng/ml sMSLN [2]: 2 fold
EC50 target cell killing, H226 cells, 100 ng/ml sMSLN [7]: 3.56 pM
EC50 target cell killing, H226 cells, no sMSLN [7]: 1.54 pM
max. killing, H226 cells, 100 ng/ml sMSLN [7]: 58.9%
max. killing, H226 cells, no sMSLN [7]: 46.3%

EC50 CD8+ T cell activation, H226 cells [3]: 0.09 pM
EC50 CD8+ T cell activation, Met-5A cells [3]: 10.9 pM
EC50 CD8+ T cell activation, H292 cells [4]: 34.1 pM
EC50 CD8+ T cell activation, HPAC cells [4]: 47.2 pM
EC50 CD8+ T cell activation with H226 cells, 50 ng/ml MSLN [6]: 200 pM
EC50 CD8+ T cell activation with H226 cells, 500 ng/ml MSLN [6]: 1120 pM
EC50 CD8+ T cell activation with H226 cells, no MSLN [6]: 22.9 pM
Fold-diff Window (mean Met-5A EC50 / mean H226 EC50) [19]: 1.1 fold
Kd [11]: 12100 pM
EC50 [12]: 1570 pM
max. binding (MFI) [12]: 467000 MFI
EC50 [13]: 709 pM
max. binding (MFI) [13]: 12200 MFI
EC50 [14]: 2160 pM
max. binding (MFI) [14]: 33300 MFI
EC50 [15]: 194 pM
max. binding (MFI) [15]: 11200 MFI
Kd [21]: 175 pM
koff [21]: 6.39e-05 s⁻¹
kon [21]: 366000 M⁻¹ s⁻¹
kon [16]: 293000 M⁻¹ s⁻¹
koff [17]: 0.00508 s⁻¹
Kd [18]: 187 pM
koff [18]: 4.96e-05 s⁻¹
kon [18]: 265000 M⁻¹ s⁻¹
B3: PRO1872 (scMATCH3, MSLNlow KD×CD3×hSA) (other)
chain: DVVMTQSPSSLSASVGDRVTITCQASQIISSRSAWYQQKPGQPPKLLIYQASKLASGVPSRFSGSGSGTDFTLTISSLQPEDFATYYCQCTYIDSNFGAFGCGTKLTVLGGGGGSEVQLVESGGGLVQPGGSLRLSCAASGFSLSSYDMSWVRQAPGKGLAWIGASYASGPTYYASWAKGRFTISRDNSKNTVYLQMNSLRAEDTATYFCARGGWTGTSHSNIWGQGTLVTVSSGGGGSGGGGSGGGGSGGGGSDIQMTQSPSSLSASVGDRVTITCQSSQSVFSNNYLAWFQQKPGQSPKRLIYSASTLASGVPSRFSGSGSGTDFTLTISSLQPEDFATYYCLGSYACSSADCYVFGTGTKVTVLGGGGGSEVQLVESGGGLVQPGGSLRLSCAASGFSFSSSYWICWVRQAPGKCLEWVGCVFTGDGTTYYASWAKGRFTISRDNSKNTVYLQMNSLRAEDTATYFCARPVSVYYYGMDLWGQGTLVTVSSGGGGSGGGGSDIQMTQSPSSLSASVGDRVTITCQASESIGNYLAWYQQKPGKAPKLLIYSASTLASGVPSRFSGSGSGTDFTLTISSLQPEDFATYYCQSTDYGDSYIFGTGTKVTVLGGGGGSGGGGSGGGGSGGGGSEVQLVESGGGLVQPGGSLRLSCAASGISVSNDYYMCWVRQAPGKGLEWIGCISTYIGNTHYASWAKGRFTISRDNSKNTVYLQMNSLRAEDTAVYYCAKNAGYPGYRYAIDLWGQGTLVTVSS
notes: also called MSLN.CD3
fold killing potency against PRO2000, H292 cells [1]: 7 fold
fold killing potency against PRO2000, MeT-5A cells [1]: 16 fold
fold lower H226 killing potency against PRO2000, no sMSLN [1]: 20 fold
fold lower H226 killing potency against PRO2100, no sMSLN [1]: 10 fold
fold reduction of H226 killing potency with 500 ng/ml sMSLN [2]: 106 fold
shift of H226 killing potency with 100 ng/ml sMSLN [2]: 10 fold
EC50 target cell killing, H226 cells [3]: 5.31 pM
EC50 target cell killing, Met-5A cells [3]: 8.88 pM
EC50 target cell killing, H292 cells [4]: 91 pM
EC50 target cell killing, HPAC cells [4]: 30.3 pM
EC50 H226 target cell killing, 50 ng/ml soluble mesothelin [5]: 636 pM
EC50 H226 target cell killing, 500 ng/ml soluble mesothelin [5]: 4650 pM
EC50 H226 target cell killing, no mesothelin [5]: 43.9 pM
EC50 target cell killing, H226 cells, 100 ng/ml sMSLN [7]: 130 pM
EC50 target cell killing, H226 cells, no sMSLN [7]: 13.4 pM
max. killing, H226 cells, 100 ng/ml sMSLN [7]: 60.7%
max. killing, H226 cells, no sMSLN [7]: 54%
average mean H226 EC50, cell killing (LDH release) [19]: 120 pM
average mean Met-5A EC50, cell killing (LDH release) [19]: 138 pM
Delta 0-50 ng/mL sMSLN (x-fold change in H226 killing potency) [20]: 8.5 fold
Delta 0-500 ng/mL sMSLN (x-fold change in H226 killing potency) [20]: 78.2 fold
